Reference: EP1902729A1

Molecular target: HIF2α protein
Assay: cell-based or functional assay

With “Int6-ΔC (mutant in which the Int6 PINT (PCI) domain has been deleted)” the expression and transcriptional activity of HIF2α was 2 fold.
